Common to all, as to test: cell-based or functional assay
For test [1], the target named is HA of B/Yamanashi/166/98 (yamagata) (influenza B virus).
Test [2] deals with HA of A/Wilson Smith N/33 (H1N1) (influenza A virus, UniProt P03454 18-565).
In test [3] the target is HA of A/Hong Kong/8/68 (H3N2) (influenza A virus).
Test [4] addresses HA of A/Beijing/262/95 (H1N1) (influenza A virus).
Test [5] has as its target HA of B/Ohio/1/2005 (victoria) (influenza B virus).
Test [6] deals with HA of A/California/07/2009 (H1N1) (influenza A virus).
Test [7] deals with HA of B/Malaysia/2506/2004 (victoria) (influenza B virus).
Test [8] concerns the target HA of B/Sichuan/379/99 (yamagata) (influenza B virus).
For test [9], the target named is HA of ca A/Panama/2007/99 (H3N2) (influenza A virus).
Test [10] addresses HA of A/Solomon Island/3/2006 (H1N1) (influenza A virus).
Test [11] concerns the target HA of B/Hong Kong/330/2001 (victoria) (influenza B virus).
For test [12], the target named is HA of ca B/Beijing/243/97 (victoria) (influenza B virus).
Test [13] concerns the target HA of A/Victoria/3/75 (H3N2) (influenza A virus).
The target of test [14] is HA of B/Florida/4/2006 (yamagata) (influenza B virus).
The target of test [15] is HA of A/Shan dong/9/93 (H3N2) (influenza A virus).

HA of A/Wilson Smith N/33 (H1N1), sequence (P03454 18-565 limits assumed): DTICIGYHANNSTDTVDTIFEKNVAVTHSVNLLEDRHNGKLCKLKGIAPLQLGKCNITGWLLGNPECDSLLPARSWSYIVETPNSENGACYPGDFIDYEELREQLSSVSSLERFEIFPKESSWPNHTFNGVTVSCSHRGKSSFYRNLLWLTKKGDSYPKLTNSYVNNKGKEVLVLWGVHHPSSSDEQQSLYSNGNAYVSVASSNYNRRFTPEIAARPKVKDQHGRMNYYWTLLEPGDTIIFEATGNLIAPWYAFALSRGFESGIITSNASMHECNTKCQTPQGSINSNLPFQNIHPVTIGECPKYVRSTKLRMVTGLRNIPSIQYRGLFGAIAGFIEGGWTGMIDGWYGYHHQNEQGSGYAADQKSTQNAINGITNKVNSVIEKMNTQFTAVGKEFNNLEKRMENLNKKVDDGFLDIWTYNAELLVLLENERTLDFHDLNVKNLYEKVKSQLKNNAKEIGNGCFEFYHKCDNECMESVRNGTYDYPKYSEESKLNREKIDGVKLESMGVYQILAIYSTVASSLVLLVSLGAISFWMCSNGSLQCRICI

B1: FY1/39 BiS3 100/44 (bispecific antibody)
light: DIQMTQSPSSLSASVGDRVTITCRTSQSLSSYLHWYQQKPGKAPKLLIYAASSLQSGVPSRFSGSGSGTDFTLTISSLQPEDFATYYCQQSRTFGQGTKVEIKRTVAAPSVFIFPPSDEQLKSGTASVVCLLNNFYPREAKVQWKVDNALQSGNSQESVTEQDSKDSTYSLSSTLTLSKADYEKHKVYACEVTHQGLSSPVTKSFNRGEC
heavy: not shown
As to B1, the “Neutralization (IC50)” value in test [1] was 0.7 nM; in test [2] it was 10.6 nM; in test [3], 5.8 nM; in test [4], 20.2 nM; in test [5] it was 8.1 nM; in [6] it was 9.9 nM. Besides, the “Neutralization (IC50)” value was 43.7 nM in [7]; 12.3 nM in test [8]; 149 nM in [9]; 2.5 nM in test [10]; 112 nM in test [11]; 21.5 nM in [12]. Also, the “Neutralization (IC50)” value in [13] was 45.2 nM; in [14], 5.9 nM; in test [15] it was 7.8 nM.

Source of the values: patent US20180155413A1 (AstraZeneca / MedImmune, published 2018).
